Target: Paxillin N-domain (residues 1 to 311) (human) (UniProt P49023)
Test: NMR titration; 100 μM 15N-PXN N-domain, unlabeled FAT added (10 to 300 μM); 2D 1H-15N HSQC, decay of amide peak intensity per LD motif, fraction bound against total FAT; effective (relative) constants for single LD motifs; 100 mM potassium phosphate, 1 mM TCEP, 0.1 mM EDTA, pH 7.0, 10°C

UniProt P49023, sequence (P49023 other isoform, or with tags, fused parts or gaps): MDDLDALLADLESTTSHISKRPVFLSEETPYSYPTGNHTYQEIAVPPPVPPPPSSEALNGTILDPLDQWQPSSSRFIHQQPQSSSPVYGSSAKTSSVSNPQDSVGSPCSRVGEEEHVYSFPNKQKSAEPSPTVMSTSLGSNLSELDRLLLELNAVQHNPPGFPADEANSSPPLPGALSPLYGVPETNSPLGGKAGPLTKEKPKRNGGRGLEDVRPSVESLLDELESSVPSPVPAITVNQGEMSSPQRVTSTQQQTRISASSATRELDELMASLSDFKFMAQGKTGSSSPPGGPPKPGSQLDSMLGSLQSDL

focal adhesion targeting (FAT) domain of focal adhesion kinase (domain or fragment)
effective Kd of the LD1 motif: 17 µM
effective Kd of the LD2 motif: 7000 µM
effective Kd of the LD4 motif: 13 µM

Reference: publication PMC12175908
